Target: adalimumab
Experiment: SPR; ligand on CM5; max response at 800 nM, rounded to 50 Ru

Substance | max response (Ru)
ZGE0214 (domain E with A/R/I at positions 33/40/51) (designed binder) | 4100
ZGE0234 (domain E with A/G/R at positions 33/40/51) (designed binder) | 2950
